# Results reported in patent publication US20230181681A1, “PEPTIDE FOR SUPPRESSING CORONAVIRUS AND USE THEREOF” (priority 2020, published 2023).
# B1: Spike CD-F (peptide)
# peptide: TGCGTNCMGKLKCNRC
# modifications: not checked
# Target: MERS-CoV N protein (MERS-CoV), K9N4V7
binder,measurement,value
B1,percent inhibition of the interaction between Spike CD-Full and N protein,40%
